Source: paper PMC4873976, “Structural basis for haem piracy from host haemopexin by Haemophilus influenzae” (Nature Communications, 2016)

Experiments:
[1] = target: cysteine-less variant of HxuA^DEL (Haemophilus influenzae) (UniProt P44602); assay: ITC; haemopexin or its fragments (~100 μM) in the syringe, HxuA (~10 μM) in the cell; 20 mM Na-phosphate pH 7.0, 25 °C; single-site model; apparent Ka
[2] = target: T1, HxuA^Asp726Ala, cysteine-less (dm) variant (Haemophilus influenzae, UniProt P44602 22-905, Asp726Ala | Cys855 replaced by serine | Cys861 replaced by serine); assay: ITC; haemopexin or its fragment (~100 uM) in the syringe, HxuA or mutant (~10 uM) in the cell; 25 °C; 20 mM Na-phosphate pH 7.0; single-site model; apparent Ka; mean of one to three experiments; settings: both partners purified
T1 construct: source: E. coli BL21 with a pBAD24 derivative harbouring the hxuCBA operon; purified from the culture supernatant (same protocol as HxuA)
T1 sequence: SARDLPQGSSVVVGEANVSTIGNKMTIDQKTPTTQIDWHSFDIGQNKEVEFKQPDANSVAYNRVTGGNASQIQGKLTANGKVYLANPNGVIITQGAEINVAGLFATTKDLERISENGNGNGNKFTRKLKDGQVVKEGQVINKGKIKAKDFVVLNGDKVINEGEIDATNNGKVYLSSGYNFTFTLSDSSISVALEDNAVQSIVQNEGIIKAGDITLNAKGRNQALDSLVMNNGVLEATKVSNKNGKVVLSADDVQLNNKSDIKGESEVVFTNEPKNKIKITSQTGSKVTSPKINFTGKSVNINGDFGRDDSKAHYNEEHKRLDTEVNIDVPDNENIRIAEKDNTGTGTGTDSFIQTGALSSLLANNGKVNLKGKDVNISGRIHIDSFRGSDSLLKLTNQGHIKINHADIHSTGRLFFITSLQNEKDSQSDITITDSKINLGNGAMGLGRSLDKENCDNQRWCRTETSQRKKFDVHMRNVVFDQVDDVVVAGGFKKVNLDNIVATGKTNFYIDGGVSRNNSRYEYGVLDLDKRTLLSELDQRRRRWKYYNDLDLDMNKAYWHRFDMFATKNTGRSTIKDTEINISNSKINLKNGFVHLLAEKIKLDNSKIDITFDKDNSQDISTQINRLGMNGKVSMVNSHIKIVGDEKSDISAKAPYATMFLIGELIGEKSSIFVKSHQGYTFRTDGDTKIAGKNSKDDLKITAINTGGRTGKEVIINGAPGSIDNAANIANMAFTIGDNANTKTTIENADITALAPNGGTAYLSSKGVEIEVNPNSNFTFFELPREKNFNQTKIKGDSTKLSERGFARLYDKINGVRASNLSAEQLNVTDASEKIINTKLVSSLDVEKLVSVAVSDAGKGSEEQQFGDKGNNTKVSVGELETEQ

[3] = target: T2, HxuA^DEL (M loop deletion), cysteine-less (dm) variant (Haemophilus influenzae, UniProt P44602 22-905, additional Pro codon replacing the initial 712-728 sequence | Cys855 replaced …); assay: as above; settings: both partners purified
T2 construct: source: E. coli BL21 with a pBAD24 derivative harbouring the hxuCBA operon; purified from the culture supernatant (same protocol as HxuA)
T2 sequence: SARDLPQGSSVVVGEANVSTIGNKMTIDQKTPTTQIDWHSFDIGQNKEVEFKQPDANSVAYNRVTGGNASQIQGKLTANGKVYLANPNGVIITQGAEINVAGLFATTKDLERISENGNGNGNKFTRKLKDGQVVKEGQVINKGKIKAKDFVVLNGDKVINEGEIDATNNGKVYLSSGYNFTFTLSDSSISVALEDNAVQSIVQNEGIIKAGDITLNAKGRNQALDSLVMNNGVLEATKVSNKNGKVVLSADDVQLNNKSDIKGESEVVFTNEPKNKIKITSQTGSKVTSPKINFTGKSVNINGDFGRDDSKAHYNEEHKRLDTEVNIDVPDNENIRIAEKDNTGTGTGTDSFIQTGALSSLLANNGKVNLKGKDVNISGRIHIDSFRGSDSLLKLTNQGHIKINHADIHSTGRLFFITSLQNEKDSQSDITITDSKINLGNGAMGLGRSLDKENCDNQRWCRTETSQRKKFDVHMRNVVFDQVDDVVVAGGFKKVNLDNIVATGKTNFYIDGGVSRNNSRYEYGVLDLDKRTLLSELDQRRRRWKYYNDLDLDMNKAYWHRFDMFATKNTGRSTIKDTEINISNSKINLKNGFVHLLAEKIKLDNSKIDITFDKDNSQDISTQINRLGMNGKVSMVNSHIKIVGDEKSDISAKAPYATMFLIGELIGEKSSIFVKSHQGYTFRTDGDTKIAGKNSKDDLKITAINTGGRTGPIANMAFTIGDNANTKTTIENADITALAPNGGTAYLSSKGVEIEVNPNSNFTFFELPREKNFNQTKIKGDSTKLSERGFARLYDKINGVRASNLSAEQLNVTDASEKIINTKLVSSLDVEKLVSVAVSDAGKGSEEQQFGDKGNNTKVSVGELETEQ

[4] = target: T3, HxuA (cysteine-less variant, Cys855 and Cys861 replaced by serines; referred to as HxuA throughout) (Haemophilus influenzae, UniProt P44602 22-905, Cys855 replaced by serine | Cys861 replaced by serine); assay: as above; settings: both partners purified
T3 construct: also called WT; HxuAWT; source: E. coli BL21 with a pBAD24 derivative harbouring the hxuCBA operon; purified from the culture supernatant (ammonium sulfate, SEC, monoQ)
T3 sequence: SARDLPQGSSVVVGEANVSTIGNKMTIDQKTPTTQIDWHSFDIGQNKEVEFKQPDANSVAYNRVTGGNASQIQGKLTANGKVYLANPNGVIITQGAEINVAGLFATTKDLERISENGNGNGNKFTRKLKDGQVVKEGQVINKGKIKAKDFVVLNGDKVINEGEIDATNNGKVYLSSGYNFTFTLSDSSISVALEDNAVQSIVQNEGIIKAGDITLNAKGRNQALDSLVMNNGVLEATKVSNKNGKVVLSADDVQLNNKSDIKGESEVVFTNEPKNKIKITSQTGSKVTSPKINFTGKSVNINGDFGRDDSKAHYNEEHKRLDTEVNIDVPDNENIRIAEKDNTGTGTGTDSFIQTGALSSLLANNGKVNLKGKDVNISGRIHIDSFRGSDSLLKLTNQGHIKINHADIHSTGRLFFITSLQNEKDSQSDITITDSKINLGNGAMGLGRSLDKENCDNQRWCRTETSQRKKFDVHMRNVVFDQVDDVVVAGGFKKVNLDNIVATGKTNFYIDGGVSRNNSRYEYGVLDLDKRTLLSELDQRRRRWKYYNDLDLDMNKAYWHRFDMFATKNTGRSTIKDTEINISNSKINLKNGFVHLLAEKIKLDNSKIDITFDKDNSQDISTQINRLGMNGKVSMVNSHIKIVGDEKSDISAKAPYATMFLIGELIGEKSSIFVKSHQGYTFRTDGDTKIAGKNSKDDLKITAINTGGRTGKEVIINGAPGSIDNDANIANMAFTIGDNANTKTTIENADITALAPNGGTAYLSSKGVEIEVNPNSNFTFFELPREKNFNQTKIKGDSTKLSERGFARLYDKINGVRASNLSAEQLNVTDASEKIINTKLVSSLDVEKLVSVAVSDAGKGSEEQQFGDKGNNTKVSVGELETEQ

[5] = target: T4, HxuA, cysteine-less variant (cysteines 855 and 861 replaced by serines; referred to as HxuA throughout) (Haemophilus influenzae, UniProt P44602 22-905, cysteine at position 855 replaced by serine | cysteine at position 861 replaced …); assay: ITC; haemopexin or its fragments (~100 μM) in the syringe, HxuA (~10 μM) in the cell; 20 mM Na-phosphate pH 7.0, 25 °C; single-site model; apparent Ka; settings: both partners purified
T4 construct: HxuA, haem-haemopexin utilisation protein A (TpsA cargo protein) of Haemophilus influenzae, called full-length, 884 residues, Ser1 to Gln884; Measured mass 96,467.6094 (theoretical 96,469.6926); also called HxuAdm; dm variant; source: E. coli BL21, pBAD24 derivative with the hxuCBA operon; purified from the culture supernatant (ammonium sulfate, SEC, monoQ)
T4 sequence: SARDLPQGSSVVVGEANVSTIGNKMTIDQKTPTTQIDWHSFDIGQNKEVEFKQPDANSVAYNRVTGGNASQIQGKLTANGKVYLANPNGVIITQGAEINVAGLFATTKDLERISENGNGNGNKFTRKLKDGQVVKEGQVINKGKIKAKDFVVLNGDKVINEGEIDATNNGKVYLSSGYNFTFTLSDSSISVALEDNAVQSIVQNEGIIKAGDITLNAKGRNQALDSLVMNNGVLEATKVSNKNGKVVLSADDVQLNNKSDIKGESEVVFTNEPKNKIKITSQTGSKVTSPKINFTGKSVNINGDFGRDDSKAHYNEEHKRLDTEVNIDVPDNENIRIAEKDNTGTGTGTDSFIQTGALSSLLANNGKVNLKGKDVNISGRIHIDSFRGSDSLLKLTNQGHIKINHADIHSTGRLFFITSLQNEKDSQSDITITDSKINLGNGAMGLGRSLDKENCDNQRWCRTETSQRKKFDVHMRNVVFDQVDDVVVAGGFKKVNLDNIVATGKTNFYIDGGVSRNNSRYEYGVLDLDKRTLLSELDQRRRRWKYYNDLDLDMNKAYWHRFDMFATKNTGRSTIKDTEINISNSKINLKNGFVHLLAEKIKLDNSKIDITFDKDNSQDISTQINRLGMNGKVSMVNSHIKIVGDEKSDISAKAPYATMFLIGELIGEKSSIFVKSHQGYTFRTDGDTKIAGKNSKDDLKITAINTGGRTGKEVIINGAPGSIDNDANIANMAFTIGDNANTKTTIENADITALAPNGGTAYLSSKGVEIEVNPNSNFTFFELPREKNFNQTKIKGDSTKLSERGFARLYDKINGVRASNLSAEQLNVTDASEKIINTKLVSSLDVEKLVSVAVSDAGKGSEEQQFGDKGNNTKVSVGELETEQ

Row | Molecule | stoichiometry N [2] | stoichiometry N [3] | Ka [4] [M⁻¹] | stoichiometry N [4] | dH [5] [kcal/mol] | further results
1 | rabbit haem-haemopexin (from UniProt P20058 26-460) (natural protein) |  |  |  |  |  | Ka [1]: 1.7e+08 M⁻¹; dH [1]: -13 kcal/mol; stoichiometry N [1]: 1
2 | rabbit haemopexin (haem-free) (natural protein, Glycoprotein from serum; also called Hpx; hemopexin; source: purified from rabbit serum (Biosera)) VPLTSAHGNVTEGESGTKPEADVIEQCSDGWSFDATTLDDNGTMLFFKDEFVWKSHRGIRELISERWKNFIGPVDAAFRHGHTSVYLIKGDKVWVYTSEKNEKVYPKSLQDEFPGIPFPLDAAVECHRGECQDEGILFFQGNRKWFWDLTTGTKKERSWPAVGNCTSALRWLGRYYCFQGNQFLRFNPVSGEVPPGYPLDVRDYFLSCPGRGHRSSHRNSTQHGHESTRCDPDLVLSAMVSDNHGATYVFSGSHYWRLDTNRDGWHSWPIAHQWPQGPSTVDAAFSWEDKLYLIQDTKVYVFLTKGGYTLVNGYPKRLEKELGSPPVISLEAVDAAFVCPGSSRLHIMAGRRLWWLDLKSGAQATWTELPWPHEKVDGALCMEKPLGPNSCSTSGPNLYLIHGPNLYCYRHVDKLNAAKNLPQPQRVSRLLGCTH | 0.68 | 1.07 | > 1e+09 | 0.8 |  | Ka [2]: > 1e+09 M⁻¹; Ka [3]: > 1e+09 M⁻¹
3 | N-terminal domain of rabbit haemopexin (domain or fragment, haemopexin, rabbit, N-terminal fragment; The results call the domain residues 1-208; the fragment itself ends at Arg214; also called NtHpx; NterHpx; source: trypsin digestion of haemopexin purified from rabbit serum; purified (mono S, SEC)) VPLTSAHGNVTEGESGTKPEADVIEQCSDGWSFDATTLDDNGTMLFFKDEFVWKSHRGIRELISERWKNFIGPVDAAFRHGHTSVYLIKGDKVWVYTSEKNEKVYPKSLQDEFPGIPFPLDAAVECHRGECQDEGILFFQGNRKWFWDLTTGTKKERSWPAVGNCTSALRWLGRYYCFQGNQFLRFNPVSGEVPPGYPLDVRDYFLSCPGRGHR |  |  | 7.6e+07 | 0.88 |  | 
4 | rabbit haem-haemopexin (natural protein, haem bound, Same chain as Dm4, with haem; also called He-Hpx; HeHpx; source: purified from rabbit serum (Biosera), haem-loaded) VPLTSAHGNVTEGESGTKPEADVIEQCSDGWSFDATTLDDNGTMLFFKDEFVWKSHRGIRELISERWKNFIGPVDAAFRHGHTSVYLIKGDKVWVYTSEKNEKVYPKSLQDEFPGIPFPLDAAVECHRGECQDEGILFFQGNRKWFWDLTTGTKKERSWPAVGNCTSALRWLGRYYCFQGNQFLRFNPVSGEVPPGYPLDVRDYFLSCPGRGHRSSHRNSTQHGHESTRCDPDLVLSAMVSDNHGATYVFSGSHYWRLDTNRDGWHSWPIAHQWPQGPSTVDAAFSWEDKLYLIQDTKVYVFLTKGGYTLVNGYPKRLEKELGSPPVISLEAVDAAFVCPGSSRLHIMAGRRLWWLDLKSGAQATWTELPWPHEKVDGALCMEKPLGPNSCSTSGPNLYLIHGPNLYCYRHVDKLNAAKNLPQPQRVSRLLGCTH | 1.06 | 0.89 |  | 0.96 |  | 
5 | N-terminal domain of rabbit haemopexin (domain or fragment, haemopexin, rabbit, N-terminal tryptic fragment: cleaved in the linker after Arg 214; also called NtHpx; NterHpx; source: trypsin digestion of haemopexin purified from rabbit serum; purified (mono S, SEC)) VPLTSAHGNVTEGESGTKPEADVIEQCSDGWSFDATTLDDNGTMLFFKDEFVWKSHRGIRELISERWKNFIGPVDAAFRHGHTSVYLIKGDKVWVYTSEKNEKVYPKSLQDEFPGIPFPLDAAVECHRGECQDEGILFFQGNRKWFWDLTTGTKKERSWPAVGNCTSALRWLGRYYCFQGNQFLRFNPVSGEVPPGYPLDVRDYFLSCPGRGHR |  |  |  |  | -48.5 | stoichiometry N [5]: ~1
6 | rabbit haemopexin (haem-free) (natural protein, haemopexin, rabbit, serum glycoprotein, called full-length; two MMP domains (residues 1-208 and 228-435) joined by a linker; Glycoprotein from serum; also called Hpx; full-length haemopexin; source: purified from rabbit serum (Biosera): perchloric acid, PEG 3400, S-sepharose, mono Q, SEC) VPLTSAHGNVTEGESGTKPEADVIEQCSDGWSFDATTLDDNGTMLFFKDEFVWKSHRGIRELISERWKNFIGPVDAAFRHGHTSVYLIKGDKVWVYTSEKNEKVYPKSLQDEFPGIPFPLDAAVECHRGECQDEGILFFQGNRKWFWDLTTGTKKERSWPAVGNCTSALRWLGRYYCFQGNQFLRFNPVSGEVPPGYPLDVRDYFLSCPGRGHRSSHRNSTQHGHESTRCDPDLVLSAMVSDNHGATYVFSGSHYWRLDTNRDGWHSWPIAHQWPQGPSTVDAAFSWEDKLYLIQDTKVYVFLTKGGYTLVNGYPKRLEKELGSPPVISLEAVDAAFVCPGSSRLHIMAGRRLWWLDLKSGAQATWTELPWPHEKVDGALCMEKPLGPNSCSTSGPNLYLIHGPNLYCYRHVDKLNAAKNLPQPQRVSRLLGCTH |  |  |  |  | -52.7 | 
